What was measured:
Details in all cases: LightShift EMSA: 1x binding buffer, 2.5% glycerol, 5 mM MgCl2, 0.05% NP-40, 5 mM EDTA, 20 ng probe, 0-0.5 ng protein (so in the source), 20 uL, 20 min at 26 C; 6% …
[1] = target: T1, OxyR (Pseudomonas aeruginosa PA14) (UniProt A0A0H2ZI92); assay: EMSA
T1 sequence: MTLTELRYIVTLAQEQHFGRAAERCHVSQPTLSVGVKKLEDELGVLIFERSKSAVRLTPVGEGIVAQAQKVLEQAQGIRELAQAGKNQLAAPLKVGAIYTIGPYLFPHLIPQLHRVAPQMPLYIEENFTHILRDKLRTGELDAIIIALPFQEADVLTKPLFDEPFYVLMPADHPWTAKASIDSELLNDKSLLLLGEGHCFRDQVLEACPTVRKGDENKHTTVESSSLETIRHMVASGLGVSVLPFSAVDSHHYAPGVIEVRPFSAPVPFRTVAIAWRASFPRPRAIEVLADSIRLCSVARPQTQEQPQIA

[2] = target: T2, OmpR (Pseudomonas aeruginosa PA14) (UniProt A0A0H2ZIR0); assay: EMSA
T2 sequence: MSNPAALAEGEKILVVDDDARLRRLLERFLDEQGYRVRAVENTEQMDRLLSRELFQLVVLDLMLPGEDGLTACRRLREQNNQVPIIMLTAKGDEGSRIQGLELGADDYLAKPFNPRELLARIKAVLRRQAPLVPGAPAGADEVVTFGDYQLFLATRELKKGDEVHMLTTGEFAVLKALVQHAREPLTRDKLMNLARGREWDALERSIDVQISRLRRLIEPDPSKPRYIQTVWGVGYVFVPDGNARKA

[3] = target: T1, OxyR (Pseudomonas aeruginosa PA14); assay: competition
[4] = target: T2, OmpR (Pseudomonas aeruginosa PA14); assay: competition

“GGGAGTCCAACGAAAATTTTATTTTGCAAATCCATAGACCTGTTCTAGCGTCTTTTGTAGTTCGTCGCCAGTGACGGACCAGAGGGATCGCCAAGGACAGGTTCTGCGCCGTTTTCCCTGTCATGCCTGTGATCCAGCAAGGGACTGCGATGATCAGGGCATCCCCCGATGCATTGCGCCCCCACCATTGCATCGGAGTCAGCCGCC (double strand) [Bio-PH3-T6SS left]” was tested, and the binding [1] was “binds” and the binding [2] was “binds”.

For “CGATGCGCCCGTCGGCGTAGCGTTTATGTAGTTCAGCGCGCGATACACCTGTCCCTTGAAGGCGGAGGGATACGGGCTTTCCTCGTAGAAGCCGGTGGCTTCGTTGAGCACCTCCCAATCGCTGTCCTGGGTCAGCACGGCGATTCCGGGCGGGGTCGCATGATACAGGCCGTTCGTGGGGCGCCAGTATTCGATGGTTCGGGGCAT (double strand) [Unrelated DNA (control)]”, the binding [3] was “no binding” and the binding [4] was “no binding”.
